The source of these data is patent US20130034894A1, “NOVEL ALLENE OXIDE SYNTHASE DERIVED FROM LEMNA PAUCICOSTATA” (priority 2010, published 2013).

Data set [1] can be described thus: Activity testing in KODA production (HPLC quantitation of KODA). The class given is biochemical. As to conditions: 0.32 ng protein in 20 μl 9-HPOT reaction solution, room temperature, 10 minutes; relative to AtAOS. The text has this:
The allene oxide synthase activity can be determined by allowing a 9-product specific lipoxygenase to act on α-linolenic acid, and then adding a given amount of allene oxide synthase to the enzymatic reaction product 9-hydroperoxylinolenic acid (9-HPOT) to produce KODA, and the KODA produced is quantitatively analyzed by HPLC.
After the SHLpAOS sequence integrated into the pTAC-2 vector by the above method was cleaved with NcoI and XhoI, it was introduced into a commercially available vector pET41a (Novagen) for protein expression to obtain a plasmid pET41a/SHLpAOS for expression of Lemna paucicostata allene oxide synthase. This plasmid was transformed into Escherichia coli strain BL21(DE3) (Novagen). Then, it was inoculated in 3 ml of the LB medium containing 30 mg/l kanamycin, and cultured under shaking overnight at 37° C. and 250 rpm. 100 μl of this culture liquid was added to 10 ml of the LB medium containing the same concentration of kanamycin and 1% glucose and cultured under shaking at 37° C. and 250 rpm for 3-4 hours. […]
In the activity testing in KODA production, 5 mM linolenic acid solution (dissolved in 0.1% Tween 80 solution) was prepared, and reacted with lipoxygenase extracted from rice germ at pH 7 at room temperature for 10 minutes to synthesize 9-hydroperoxylinolenic acid (9-HPOT) solution. […] 10 μl of this solution was analyzed by HPLC. […]

Data set [2] in a line: Kinetic analysis of allene oxide synthase (decrease in absorbance at 234 nm, Hanes-Woolf plot). The data set is classed as biochemical. As to conditions: for Kcat / Km / Vmax: substrate 9-HPOT 5-53 μM, 40 mM phosphate buffer pH 7.5, 1% EtOH, 25° C. The method, then:
SHLpAOS obtained from Lemna paucicostata SH strain was subjected to kinetic analysis. Using a reaction mixture comprising 40 mM phosphate buffer (pH 7.5) and 1% EtOH, the reaction was carried out at a temperature of 25° C. The substrate 9-HPOT was tested at the substrate concentration of 5-53 μM. The substrate 9-HOPT was added as an EtOH solution, and the final concentration of EtOH was adjusted to 1%. 100 μl of the reaction mixture was added into a cuvette, and a decrease in absorbance at 234 nm was scanned over time for 1 minute at an interval of 2 seconds using the SmartSpec Plus Spectrophotometer (Bio-Rad). From the A234 determined, the amount of the reaction product was calculated (e=25,000). Kinetic parameters were determined using the Hanes-Woolf plot ([S]/v versus [S] plot). […] It is believed that compared to AtAOS, SHLpAOS is a very useful AOS in the practical production of KODA.

B1: SHLpAOS: allene oxide synthase obtained from the Lemna paucicostata SH strain, expressed in Escherichia coli (SEQ ID NO: 2, 480 aa) (protein, listed as Lemna paucicostata)
chain: MSVSQSDDKAALVPQKTIPGSYGIPFITPLKDRLDFFSNEYQFFQSRVESYGSTIVRLNAPPGPFMAKNPQVIAILDGKSFPVLFDTSKVEKKNIFTGTYMPSTALTGGYRVCAYLDPSEPNHTKIKQLLLNILFNRKDHVIPEFHRAYEKLFDDMDAEIAKSGKFVFNDHNDGAAFEFLGRLFFGVSPSETELGAGGVKDANLWLFSQLCPLMTLGFLPKLLEDLLLHTFPLPPFLFKGKYQAIYKYISSVATDALTMAENLGLSREEAAHNLLFAVCFNSLGGVKVLFPGILRYIAQAGKNLQASLVSEVRSAVSSTGGELTIEALEKMPLTKSVVYESLRLDPPVKYQYGVVKKDMVIESHDRSYEVKAGETLFGYQPFATRDKKIFGPDADNFVAERFIGEEGAKVLRFVVWSNGPETTDPTPVDKQCPGKNLVVLISRLLVAEFFLRYDFFDAEIGAVPLAVKTTITSLTKATTR
As to B1, the “Activity in KODA production, higher than the AtAOS protein” value in data set [1] was roughly 7 fold. Further, in data set [2] (relative to AtAOS), the “Affinity for 9-HPOT, higher than AtAOS” value was “about 5 fold”; the “Kcat value, higher than in AtAOS” value was “about 2.8 fold”; the “Kcat/Kn value, higher than in AtAOS” value is “about 14 fold”; the “Vmax, higher than AtAOS” value is given as “about 2.8 fold”. Also, in data set [2], the Kcat was determined as 709.2 ± 44.3 s⁻¹, the Km stood at 7.1 ± 1.9 µM and the Vmax was 4.7 ± 0.3 µmol/s.

B2: AtAOS: A. thaliana-derived allene oxide synthase (AOS) protein used as the control, expressed in Escherichia coli (protein, UniProt Q96242 34-518, looked up)
Allene oxide synthase, …: SGSETPDLTVATRTGSKDLPIRNIPGNYGLPIVGPIKDRWDYFYDQGAEEFFKSRIRKYNSTVYRVNMPPGAFIAENPQVVALLDGKSFPVLFDVDKVEKKDLFTGTYMPSTELTGGYRILSYLDPSEPKHEKLKNLLFFLLKSSRNRIFPEFQATYSELFDSLEKELSLKGKADFGGSSDGTAFNFLARAFYGTNPADTKLKADAPGLITKWVLFNLHPLLSIGLPRVIEEPLIHTFSLPPALVKSDYQRLYEFFLESAGEILVEADKLGISREEATHNLLFATCFNTWGGMKILFPNMVKRIGRAGHQVHNRLAEEIRSVIKSNGGELTMGAIEKMELTKSVVYECLRFEPPVTAQYGRAKKDLVIESHDAAFKVKAGEMLYGYQPLATRDPKIFDRADEFVPERFVGEEGEKLLRHVLWSNGPETETPTVGNKQCAGKDFVVLVARLFVIEIFRRYDSFDIEVGTSPLGSSVNFSSLRKASF
For B2, in data set [2], the Kcat worked out at 255.5 ± 4.8 s⁻¹, the Michaelis constant (Km) was determined as 36.3 ± 1.3 µM and the Vmax turned out to be 1.7 ± 0.03 µmol/s.
